# Results: patent US20070087405
# Biological target: β subunit of human prolyl 4-hydroxylase, P07237
# Sequence (P07237 18-508): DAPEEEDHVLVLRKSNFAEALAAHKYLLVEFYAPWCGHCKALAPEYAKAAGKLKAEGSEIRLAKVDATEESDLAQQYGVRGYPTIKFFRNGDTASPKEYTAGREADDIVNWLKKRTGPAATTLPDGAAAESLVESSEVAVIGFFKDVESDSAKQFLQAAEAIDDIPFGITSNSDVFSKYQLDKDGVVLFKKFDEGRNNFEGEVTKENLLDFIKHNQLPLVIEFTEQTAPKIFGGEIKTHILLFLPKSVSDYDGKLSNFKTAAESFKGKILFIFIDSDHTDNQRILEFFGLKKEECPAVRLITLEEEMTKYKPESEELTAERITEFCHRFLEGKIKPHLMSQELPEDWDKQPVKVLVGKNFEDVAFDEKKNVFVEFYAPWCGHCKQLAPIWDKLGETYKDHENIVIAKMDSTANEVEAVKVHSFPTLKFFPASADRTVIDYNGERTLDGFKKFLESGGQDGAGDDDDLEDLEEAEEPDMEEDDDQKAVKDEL
protein,measurement,value
α subunit of human prolyl 4-hydroxylase (protein) HPGFFTSIGQMTDLIHTEKDLVTSLKDYIKAEEDKLEQIKKWAEKLDRLTSTATKDPEGFVGHPVNAFKLMKRLNTEWSELENLVLKDMSDGFISNLTIQRQYFPNDEDQVGAAKALLRLQDTYNLDTDTISKGNLPGVKHKSFLTAEDCFELGKVAYTEADYYHTELWMEQALRQLDEGEISTIDKVSVLDYLSYAVYQQGDLDKALLLTKKLLELDPEHQRANGNLKYFEYIMAKEKDVNKSASDDQSDQKTTPKKKGVAVDYLPERQKYEMLCRGEGIKMTPRRQKKLFCRYHDGNRNPKFILAPAKQEDEWDKPRIIRFHDIISDAEIEIVKDLAKPRLRRATISNPITGDLETVHYRISKSAWLSGYENPVVSRINMRIQDLTGLDVSTAEELQVANYGVGGQYEPHFDFARKDEPDAFKELGTGNRIATWLFYMSDVSAGGATVFPEVGASVWPKKGTAVFWYNLFASGEGDYSTRHAACPVLVGNKWVSNKWLHERGQEFRRPCTLSELE,prolyl 4-hydroxylase activity (decarboxylation of 2-oxo[1-14C]glutarate) and trimeric assembly of mC21,These data suggest that the P4α and P4β are capable of assembling into an active α2β2 tetramer in the Drosophila expression system
